Measured values from the nanobody polyreactivity screen of Harvey et al. (2022).

Assay: yeast display, Sf9 membrane polyspecificity reagent, FACS + sequencing; frameworks hold sequencing errors
Outline: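 Nanobodies came from a synthetic yeast display library in Saccharomyces cerevisiae BJ5465, induced with galactose for 36–48 hours and stained for 1 hour at 4 °C with 10% biotinylated, detergent-solubilized Sf9 membrane reagent. Cells were enriched on streptavidin microbeads and then FACS-sorted, with low and high (top ~1%) gates set on anti-HA fluorescence for expression and streptavidin fluorescence for reagent binding. Each polyreactivity label reflects the gate a clone came from. Genes were amplified by colony PCR, sequenced by MiSeq 2 × 250 and filtered by CDR length.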

Row | Sequence | polyreactivity (PSR sort gate)
1 | QVHLVESGGGLVQAGGSLRLSCAASGSTFLGYAMGWYRQAPGKERELVAAISWSGGTTYYADSVKGRFTISRDNAKNTVYFQMISQKPEDTAVYYCNVYTRGRYEYWGQGTQVTVSS | low polyreactivity
2 | EVQLVESGGGLVQPGGILRVSCAASGYIYSRYRKGWYRQAPGKRREFVAAISGGSSTNYADSVKGRFTISRDNSKKTVYLQMNSLRAEDTAVYYCADSKIDSDPRVYWGQGYQVTVSS | low polyreactivity
3 | QVQLQESGGGLVQAGGSLRQSCAASGSISATDSVGWYRQAPGKEREFVATIDGGANTNYADSVKGRFTISRDNAKNTVYLQMNSLKPEDTAVYYCAKDSQTARDFDYWGQGTQVTVSS | low polyreactivity
4 | QVQLVESGGGLVQEGGSLRLSCAASGLIFNRYAMGWYRQAPGKERELVAAITSRGGRTYYADSVKGRFTISRDNAKNTVYLQMNSLKPEDTAVYYCNRTPTGSYLYGMDYWGQGTQVTVSS | high polyreactivity
5 | QVQLVESGGGLVQAGGSLRLSCAASGRTIDYNGMGSYRQAPGKERELVAVISSSGGSTFYADSVKGRFTISRDNAKNTVYLQMNSLKPVDTAVYYCAADFIVAYTLHGSYDYWGQGTQVTVSS | low polyreactivity
6 | QVQLVESGGGLVQAGGRLRLSCAASGIILGRYAMGWDRQAPGKERELVAAISIRGTRTYYADSVKGRFTISRDNAKNTVYLQLNSLKPEDTAVSYCAAKTVLWGQGTQVTVSS | high polyreactivity
7 | QVQLVESGGGLVQAGGSLRLSCAASGSIFEPNAMGWYRQAPGKEREFVAAISGSGGSTYYADSVKGRFTISRDNAKNTVYLQMNSLKPEDTAVYYCATRGKRSYFRTFYYWGQGTQVTVSS | high polyreactivity
8 | QVQLVESGGGLFQAGGSLRLSCAASGFTFGYYAMGWYRQAPGKERELVASISITAGSTYYADSVKGRFTISRDNAKNTVYLQMNSLKPEDTAVYYCAAKRRTRQSYYTEYYWGQGTQVTVSS | high polyreactivity
9 | QVQLVESGGGLVQAGGSLRLSCAASGSTFYVNDMGWYRQAPGKERELVATISSGSSTYYADSVKGRFTISRDNAKNTVYFQMNSLKPEDTAVYYCAADGVAEEGFDAPYDYWGQGTQVTVSS | low polyreactivity
10 | QVQLVESGGGLVQAGGSLRLSCAASGFIVDWYTRGWYRQAPGKERELVARISSDGSTTYADSVKGRFTISRDNAKNTVSVQMTSLKPEDTAVYYCAADVTYPGLKYIFDDWGQGTQVTVTS | low polyreactivity
11 | QVQLVESGGGLVQAGGSLRLSCAASGRTFKKYAMGWYRQAPGKERELVAAISWSGGTTYYADSVKGRFTISRDNAKNTVYLQMNSLKPEDTAVYYCAARVSRTGHGYYYFWGQGTQVTVSS | high polyreactivity
12 | QVQLVESGGGLVQAGGSLRLSCAASGRIFGVYAMGWYRQAPGKERELVAAITYRGASTYADSVKGRFTISRDNAKNTVYLQMNSLNPEDTAVYYCAAEPGSRSYGGDYWGQGTQVTVSS | high polyreactivity
13 | QVQLVESRGGLVQAGGSLRLSCAASGGTFSLNAMGWYRQAPGKERELVAANSKRSSTTYYADSVKGRFTISRDNAKNTVYLQMNSLKPEDTAVYYCAARVLRSRKPGPGYDYWGQGTQVTVSS | high polyreactivity
14 | QEQLQESGGGLVQAGGSLRLSCAASGYISSWYPMGWYRQAPGKEREFVATIAPGATTYYADSVKGRFTISRDYAKNTVYLQMNSLTPEDTAVYYCAAGPENNDFYSYWGQGTQVTVSS | low polyreactivity
15 | QVQLVETGGGLVQAGGSLRLSCAASGRTFGIYAMGWYRQAPGKERELVAANTGRGGSTHYADSVKGRFTISRDNAKNTVYLQMNSLKPEDTEVYYGAADYRYNRGITSNKDYDYWGQGTQVTVSS | low polyreactivity
16 | QVQLVESGGGLVQAGGSLRLSCAASGRIFRTNAMGWYRQAPGKEREFVAAISKDGGRTYYADSVKGRFTISRDNAKNTVYLQMNSLKPEDTAVYYCNVLVKHSTTTYSTYDYWGQGTQVTVSS | high polyreactivity
17 | QVQLVESGGGLVQAGGSLRLSCAASGLTFTGYFMGWYRQAPGKERELVAAISYSGSSTYYADSVKGRFTISRDNAKNTVYLQMNSLKQEDTAVYYCAATSHAYYPRYYYWGQGTQVTVSS | high polyreactivity
18 | QVQLVESGGGLVQAGGSLRLSCAASGRTFDSYAMGWYRQAPGKERELVAAISRAGGTNYADSVKGRFTISRDNAKLTVYLQMNRLKPDDTEVYYCAVRQAVYGLRSDFYYWGQGSQVTVSS | high polyreactivity
19 | QVQLVESGGGLVQAGGSLRLSCAASGFTFSFYTMGWYRQAPGKERELVAAISTSGSTYYADSVKGRFTISRDNAKNTVYLQMNSLKPEDTAVYYCAAGRWWRYFTWHGYWGQGTQVTVSS | high polyreactivity
20 | QVQLVESGGGLVQAGGSLRLSCAASGRTIGVYAMGWYRQAPGKERELVAAISWSGGTTYYADSVKGRFTISRDNAKNTVYLQMNSLKPEDTAVYYCDADSYTEVDYWGQGTQVTVSS | low polyreactivity
21 | QVQLVESGGGLVQAGGSLRLSCAASGRIFTAYAMGWYRQAPGKERELVASITTSGTTYYADSVKGRFTISRDNSKNTVYLQMNSLKPEDTAVYYCAADYYGYVQGGIQYGYYYLGQGTQVTVSS | low polyreactivity
22 | QVQLVESGGGVVQAGGSLRLSCAASGSTFGYYAMGWYRQAPGKERELVAAISQGAGRTYFADSVKGRFTISRDIAKNTVYLQMNSLKPEDTAVYYCAGSVTVHRWAYGYCGQGTQVTVSS | high polyreactivity

Row | Sequence | polyreactivity (PSR sort gate)
23 | QVQLVESGGGLVQAGGSLRLSCAASGSIFGPYAMGWYRQAPGKERELVATITSGGRTYYADSVKGRFTISRDNAKNTVYLQLNSLKPEDTAVYYCAAAGKGRYHFRSTMDYWGQGTQVTVSS | high polyreactivity
24 | QVQLVESGGGLVQAGGSLRLSCAASGSTLYRYAMGWYRQAPGQERELFATIRSGVNTNYADSVKGRFTISRDNAKNTVYLQMNSLKPEDTAVYYCNARTVYGVYWGRYDYWGQGTQVTVSS | high polyreactivity
25 | QVQLVDSGGGLVQAGGSLRLSCAASGSIFSKYAMGGYRQAPGKERELVAAISGSGVSTYYADSVKGRFTISRDNAKNTVFLQMNSLKTEDTAVYYCNARGSFHQPRYGYWGQGTQVTVSS | high polyreactivity
26 | QVQLVESGGVLVQAGGSLRLSCAASRGIFSGYAMGWYRQAPGKERELVASITRRGSSTYYADSVKGPFTISRDSAKNTVYLQMNSLNPEDTAVYYCHAVLRYHVLYRGYDYWGQGTQLTVSS | high polyreactivity
27 | QVQLVESGGGLVQAGGSLRLSCAASGFTFAVYAMGWYRQAPGKERELVAAINRGGGSTYADSVKGRFTISRDTAKNTVYLQMNSLKPEDTAVYYCAARVYGTRKINYSWGQGTQVTVSS | high polyreactivity
28 | QVQLVESGGGLVQAGGSLRLSCAASGFTFGGNVMGWYRQAPGTERELVAAITYSGGSTYYADSVKGRFTISRDNAKNTVYLQMNSLIPEDTAVYYCNADATDSYPEKDEHDSWGQGTQVNVSS | low polyreactivity
29 | QVQLVESGGGLVQAGGSLRLSCAASGSILSSYAMGWYRQAPGKERELVAAISYTGDSTYYADSVKGRFTISRDNAKNTVYLQMNSLKPEDTAVYYCAAELLPPYYYRWLEYWGQGTQVTVSS | low polyreactivity
30 | HVQLEESGGGLVQAGGSLRLSFAASGSIRKYYAMGSYIQAPAKERELDAAISGSGSTTYYADSVKGRFTISRDNAKNTVYLELNSLKPEDTAVYYCAAVYAFGNRYAYGSDSWGQGTQVTVSS | low polyreactivity
31 | QVQLVESGGGLVQAGGSLRLSCAASGRTFYANAMGWYRQAPGKERELVAAISSNGGSTYYADSVKGRFTISRDNAKNTVYLQMNSLKPEDTAVYYCAVVSRYKAWRKYDYWGQGTQVTVSS | high polyreactivity
32 | QVQLVESGGGLVQAGGSLRLSCAASGITFQYYAMGWYRQAPGKERELGAAITSSGVSTYYADSVKGRFTISRDNAKNTVYLQMNSLKPEDTAVYYCNTVVRGWSSSAYVYWGQGTQVTVSS | low polyreactivity
33 | QVQLVESGGGLVQAGGSIRLRCAASGITFYYYAMGWYRQAPAKERELVAAISRSGITYYADSVKGRFTISRDNAKNSVYLQMNSLKPEDTAVYYGAAGRRFDQSMYYGGQGTQVTVSS | high polyreactivity
34 | QVQIVESGGGLVQAGGSLRLSCAASGITFRRNAMGWYRQAPGKERELVAVITSVGTTYYADSVKGRFTISRDNAKNTVYLQMNSLKPEDTAVYYCAARFYWGQGTQVTVSS | high polyreactivity
35 | QVHLVETGGGLVQAGGSLRLSCAASGITFDQYAMGWYRQAPGKERELVAAITGSGGNTYYADSVKGRFTISRDNAKNTVYLQMNSLKPEDTAVYSCGAAVGRARDYWGQGTQVTVSS | low polyreactivity
36 | QVQLVESGGGLVQAGGSLRLSCAASGIIFPFYAMGWYRKAPGKERELVAAITSDGNTNYADSVKGRFTISRDNAKNTVYLQMNSLKPEDTAVYYCNAETQYGVLSWHSTRHEYWGQGTQVTVSS | low polyreactivity
37 | QVQLVESGGGLVQAGGRLRLRCAASGFTFRYNAMGCNRQAPGKERELVATISSGASTYYADSVKGRFTISRDNAKNTVYFQMNSLIPVDSAVYYCAADDLGLWFYSGVDDYYYCGQGTQVTVSS | low polyreactivity
38 | QVQLVESGGGLVQAGGSLRLSCAASGFTFKDYAMGWYRQAPGKERELVAANSRSGGSTYYADSVKGRFTNSRDSAKNTVYLQMNSLKPEDTAVYYCAAAYVRYRDPYGYWGQGTQVTVSS | high polyreactivity
39 | QVQLEESGGGLVQAGGSLRLSCAASGRIFSGNAKGWYRQAPGKERELVANITSSSNTNYADSVKGRFTISRDNAKNTVYLQMNSLKPEDTAVYYCAKSAHNGYSFYGYDYWGQGTQVTVSS | low polyreactivity
40 | QVQLVESGGGLVQAGGSLRLSCASSGRTSLNYAMGWYRQAPGKDRELVAAITSGGGGTYYADSVKGRFTISRDNAKNTVYLQMYRLKPEVTALYYCGAKFPARRKLSKVGFDYWGQGTQVSVSS | high polyreactivity
41 | QVQLVESGGGLVQAGGSLRFSCAASGRTIYYNTMGWYRQAPGKERELVAAINYGGSTYYADSVKGRFTISRDNAKNTVYLQMHSLKPEDTAVYYCNAVTRPKTWRYDYWGQGPQVTVSS | high polyreactivity
42 | QVQLVESGGGLVQAGGSLRLSCAASGNIFRGYTMGWYRQAPGKERELVATITWNGVSTFYADSVKGRFTISRDNAKNTVYLQMNSLKPEDTAVYYCAAYYPSHDYSGFWSDTYEYWGQVTQVTVSS | low polyreactivity
43 | QVQLVETGGGLVQAGGSLRLSCAASGRTLWSYVMGWYIQAPGKERELVAAITSGGTTYYADSVKGRFTISRDNAKNTFYFQMNSLKPEDTAVYSCNVYTKFVYAYDYWGQGTQVTVSS | high polyreactivity
